Results taken from patent US20230167164A1 (IMMUNOWAKE, published 2023).

Experiments:
[1] = target: T1, human IL-12 receptor complex (human, UniProt P42701 24-662; Q99665 24-862); experiment: cell-based or functional assay
[2] = target: human PD-1 overexpressed on HEK-Blue reporter cells (human, UniProt Q15116 25-288); experiment: cell-based or functional assay
human PD-1 [3] = target: T2, human PD-1 (human, UniProt Q15116 25-167, limits assumed); experiment: Kd to PD-1 as printed for the construct in Table 19; method not told there; same value as for the parental anti-PD-1 antibody
T2 construct: nivolumab is called an anti-human PD-1 antibody; also called hPD-1

human PD-1 [4] = target: T2, human PD-1; experiment: Kd column of Table 18; same value as the antibody in Table 17
[5] = target: T1, human IL-12 receptor complex; experiment: cell-based or functional assay; remark: listed apart in the source
human CD4 on cells = target: T3, human CD4 on cells (human, UniProt P01730 26-458); experiment: FACS on CD4+ T cells
T3 construct: whole, on cells; also called CD4+ T cells; HEK-CD4-IFN-γ cells

T1 sequence (Q99665 24-862, chain 2 of 2, other chains not shown): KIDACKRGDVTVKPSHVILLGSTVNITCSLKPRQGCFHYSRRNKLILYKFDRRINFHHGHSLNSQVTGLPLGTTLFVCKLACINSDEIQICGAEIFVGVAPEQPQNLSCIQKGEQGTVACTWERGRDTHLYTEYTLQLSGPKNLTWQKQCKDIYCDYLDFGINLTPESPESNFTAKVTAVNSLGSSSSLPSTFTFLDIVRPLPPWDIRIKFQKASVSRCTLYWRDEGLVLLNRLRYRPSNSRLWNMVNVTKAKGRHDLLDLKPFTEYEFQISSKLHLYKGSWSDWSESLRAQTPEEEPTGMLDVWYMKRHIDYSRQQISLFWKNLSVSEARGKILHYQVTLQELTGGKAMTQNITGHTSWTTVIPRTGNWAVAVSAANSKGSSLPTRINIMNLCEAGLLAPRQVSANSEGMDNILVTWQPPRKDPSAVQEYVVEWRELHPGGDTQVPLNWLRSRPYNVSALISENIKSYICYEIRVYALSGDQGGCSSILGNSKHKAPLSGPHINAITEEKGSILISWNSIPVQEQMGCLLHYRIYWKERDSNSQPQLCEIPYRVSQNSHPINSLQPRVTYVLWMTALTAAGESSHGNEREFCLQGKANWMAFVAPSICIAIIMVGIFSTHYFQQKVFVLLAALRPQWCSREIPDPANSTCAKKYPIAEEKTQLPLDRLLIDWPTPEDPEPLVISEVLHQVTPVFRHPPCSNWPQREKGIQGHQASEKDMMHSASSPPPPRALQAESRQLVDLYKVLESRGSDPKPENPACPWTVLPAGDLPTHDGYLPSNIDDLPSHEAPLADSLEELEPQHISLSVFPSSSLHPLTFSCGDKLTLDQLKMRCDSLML
T2 sequence (Q15116 25-167 limits assumed): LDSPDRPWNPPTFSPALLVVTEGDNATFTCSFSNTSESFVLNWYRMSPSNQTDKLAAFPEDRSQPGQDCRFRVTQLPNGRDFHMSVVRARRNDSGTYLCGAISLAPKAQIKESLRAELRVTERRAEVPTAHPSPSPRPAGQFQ
Sequence of human PD-1 overexpressed on HEK-Blue reporter cells (Q15116 25-288): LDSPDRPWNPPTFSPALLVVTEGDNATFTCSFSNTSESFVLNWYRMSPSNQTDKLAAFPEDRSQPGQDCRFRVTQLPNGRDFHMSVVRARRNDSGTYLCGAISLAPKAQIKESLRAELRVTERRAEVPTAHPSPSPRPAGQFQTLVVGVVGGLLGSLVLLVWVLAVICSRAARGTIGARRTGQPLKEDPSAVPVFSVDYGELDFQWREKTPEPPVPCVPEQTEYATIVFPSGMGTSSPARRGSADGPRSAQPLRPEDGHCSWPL

IL-12 signal transduction, % of rIL-12, HEK-IL-12 cells [1] | IL-12 signal transduction, % of rIL-12, HEK-IL-12-PD-1 (high) [2] | IL-12 signal transduction, % of rIL-12, HEK-IL-12-PD-1 (low) [2] | Kd (human PD-1 [3]) | Kd (human PD-1 [4]) | IFN-γ release, % of rIL-12, activated CD4+ T cells [5] | binding result (human CD4 on cells) | Binder
< 0.2% | 33% | 17% | 130 nM | 130 nM |  |  | IL-12(E59A/F60A)/anti-PD-1(D100G) (other) heavy 1: QVQLVESGGGVVQPGRSLRLDCKASGITFSNSGMHWVRQAPGKGLEWVAVIWYDGSKRYYADSVKGRFTISRDNSKNTLFLQMNSLRAEDTAVYYCATNGDYWGQGTLVTVSSASTKGPSVFPLAPSSKSTSGGTAALGCLVKDYFPEPVTVSWNSGALTSGVHTFPAVLQSSGLYSLSSVVTVPSSSLGTQTYICNVNHKPSNTKVDKKVEPKSCDKPGSGIWELKKDVYVVELDWYPDAPGEMVVLTCDTPEEDGITWTLDQSSEVLGSGKTLTIQVKAAGDAGQYTCHKGGEVLSHSLLLLHKKEDGIWSTDILKDQKEPKNKTFLRCEAKNYSGRFTCWWLTTISTDLTFSVKSSRGSSDPQGVTCGAATLSAERVRGDNKEYEYSVECQEDSACPAAEESLPIEVMVDAVHKLKYENYTSSFFIRDIIKPDPPKNLQLKPLKNSRQVEVSWEYPDTWSTPHSYFSLTFCVQVQGKSKREKKDRVFTDKTSATVICRKNASISVRAQDRYYSSSWSEWASVPCSGGGGSGGGGSGGGGSGGGGSGRNLPVATPDPGMFPCLHHSQNLLRAVSNMLQKARQTLEFYPCTSEEIDHEDITKDKTSTVEACLPLELTKNESCLNSRETSFITNGSCLASRKTSFMMALCLSSIYEDLKMYQVEFKTMNAKLLMDPKRQIFLDQNMLAVIDELMQALNFNSETVPQKSSLEEPDFYKTKIKLCILLHAFRIRAVTIDRVMSYLNASDKTHTCPPCPAPEDEGGPSVFLFPPKPKDTLMISRTPEVTCVVVDVSHEDPEVKFNWYVDGVEVHNAKTKPREEQYNSTYRVVSVLTVLHQDWLNGKEYKCKVSNKALPAPIEKTISKAKGQPREPQVYVYPPSREEMTKNQVSLTCLVKGFYPSDIAVEWESNGQPENNYKTTPPVLDEDGSFALVSKLTVDKSRWQQGNVFSCSVMHEALHNHYTQKSLSLSPGK heavy 2: QVQLVESGGGVVQPGRSLRLDCKASGITFSNSGMHWVRQAPGKGLEWVAVIWYDGSKRYYADSVKGRFTISRDNSKNTLFLQMNSLRAEDTAVYYCATNGDYWGQGTLVTVSSASTKGPSVFPLAPSSKSTSGGTAALGCLVKDYFPEPVTVSWNSGALTSGVHTFPAVLQSSGLYSLSSVVTVPSSSLGTQTYICNVNHKPSNTKVDKKVEPKSCDKTHTCPPCPAPEKKGGPSVFLFPPKPKDTLMISRTPEVTCVVVDVSHEDPEVKFNWYVDGVEVHNAKTKPREEQYNSTYRVVSVLTVLHQDWLNGKEYKCKVSNKALPAPIEKTISKAKGQPREPQVYVLPPSREEMTKNQVSLLCLVKGFYPSDIAVEWESNGQPENRYMTWPPVLDSDGSFFLYSKLTVDKSRWQQGNVFSCSVMHEALHNHYTQKSLSLSPGK light: not shown
 |  |  |  |  | 0% | no binding | Fab-IL-12(E59A/F60A)-Fc-CD8 Ab (other) heavy 1: EVQLQQSGPELVKPGASVKMSCKASGYTFTDYYMKWVKQSHGKSLEWIGHINPNNDDTFYTQKFKGRATLTVDKSSSTAYMQLNSLTSEDSAVYYCVRDDYDGGWFAYWGQGTLVTVSSASTKGPSVFPLAPSSKSTSGGTAALGCLVKDYFPEPVTVSWNSGALTSGVHTFPAVLQSSGLYSLSSVVTVPSSSLGTQTYICNVNHKPSNTKVDKKVEPKSCDKPGSGIWELKKDVYVVELDWYPDAPGEMVVLTCDTPEEDGITWTLDQSSEVLGSGKTLTIQVKAAGDAGQYTCHKGGEVLSHSLLLLHKKEDGIWSTDILKDQKEPKNKTFLRCEAKNYSGRFTCWWLTTISTDLTFSVKSSRGSSDPQGVTCGAATLSAERVRGDNKEYEYSVECQEDSACPAAEESLPIEVMVDAVHKLKYENYTSSFFIRDIIKPDPPKNLQLKPLKNSRQVEVSWEYPDTWSTPHSYFSLTFCVQVQGKSKREKKDRVFTDKTSATVICRKNASISVRAQDRYYSSSWSEWASVPCSGGGGSGGGGSGGGGSGGGGSGRNLPVATPDPGMFPCLHHSQNLLRAVSNMLQKARQTLEFYPCTSEEIDHEDITKDKTSTVEACLPLELTKNESCLNSRETSFITNGSCLASRKTSFMMALCLSSIYEDLKMYQVEFKTMNAKLLMDPKRQIFLDQNMLAVIDELMQALNFNSETVPQKSSLEEPDFYKTKIKLCILLHAFRIRAVTIDRVMSYLNASDKTHTCPPCPAPEDEGGPSVFLFPPKPKDTLMISRTPEVTCVVVDVSHEDPEVKFNWYVDGVEVHNAKTKPREEQYNSTYRVVSVLTVLHQDWLNGKEYKCKVSNKALPAPIEKTISKAKGQPREPQVYVYPPSREEMTKNQVSLTCLVKGFYPSDIAVEWESNGQPENNYKTTPPVLDEDGSFALVSKLTVDKSRWQQGNVFSCSVMHEALHNHYTQKSLSLSPGK heavy 2: EVQLQQSGPELVKPGASVKMSCKASGYTFTDYYMKWVKQSHGKSLEWIGHINPNNDDTFYTQKFKGRATLTVDKSSSTAYMQLNSLTSEDSAVYYCVRDDYDGGWFAYWGQGTLVTVSSASTKGPSVFPLAPSSKSTSGGTAALGCLVKDYFPEPVTVSWNSGALTSGVHTFPAVLQSSGLYSLSSVVTVPSSSLGTQTYICNVNHKPSNTKVDKKVEPKSCDKTHTCPPCPAPEKKGGPSVFLFPPKPKDTLMISRTPEVTCVVVDVSHEDPEVKFNWYVDGVEVHNAKTKPREEQYNSTYRVVSVLTVLHQDWLNGKEYKCKVSNKALPAPIEKTISKAKGQPREPQVYVLPPSREEMTKNQVSLLCLVKGFYPSDIAVEWESNGQPENRYMTWPPVLDSDGSFFLYSKLTVDKSRWQQGNVFSCSVMHEALHNHYTQKSLSLSPGK light: DIQMTQTTSSLSASLGDRVTISCRASQDINNYLNWYQQKSDGTIKLLIYYTSRSYSGVPSRFSGSGSGTDYSLTISNRRQEDIATYFCQQGKTLPWTFGGGTKLEIKRTVAAPSVFIFPPSDEQLKSGTASVVCLLNNFYPREAKVQWKVDNALQSGNSQESVTEQDSKDSTYSLSSTLTLSKADYEKHKVYACEVTHQGLSSPVTKSFNRGEC
 |  |  |  |  | 1.2% | no binding | Fab-IL-12(F60A)-Fc-CD8 Ab (other) heavy 1: EVQLQQSGPELVKPGASVKMSCKASGYTFTDYYMKWVKQSHGKSLEWIGHINPNNDDTFYTQKFKGRATLTVDKSSSTAYMQLNSLTSEDSAVYYCVRDDYDGGWFAYWGQGTLVTVSSASTKGPSVFPLAPSSKSTSGGTAALGCLVKDYFPEPVTVSWNSGALTSGVHTFPAVLQSSGLYSLSSVVTVPSSSLGTQTYICNVNHKPSNTKVDKKVEPKSCDKPGSGIWELKKDVYVVELDWYPDAPGEMVVLTCDTPEEDGITWTLDQSSEVLGSGKTLTIQVKEAGDAGQYTCHKGGEVLSHSLLLLHKKEDGIWSTDILKDQKEPKNKTFLRCEAKNYSGRFTCWWLTTISTDLTFSVKSSRGSSDPQGVTCGAATLSAERVRGDNKEYEYSVECQEDSACPAAEESLPIEVMVDAVHKLKYENYTSSFFIRDIIKPDPPKNLQLKPLKNSRQVEVSWEYPDTWSTPHSYFSLTFCVQVQGKSKREKKDRVFTDKTSATVICRKNASISVRAQDRYYSSSWSEWASVPCSGGGGSGGGGSGGGGSGGGGSGRNLPVATPDPGMFPCLHHSQNLLRAVSNMLQKARQTLEFYPCTSEEIDHEDITKDKTSTVEACLPLELTKNESCLNSRETSFITNGSCLASRKTSFMMALCLSSIYEDLKMYQVEFKTMNAKLLMDPKRQIFLDQNMLAVIDELMQALNFNSETVPQKSSLEEPDFYKTKIKLCILLHAFRIRAVTIDRVMSYLNASDKTHTCPPCPAPEDEGGPSVFLFPPKPKDTLMISRTPEVTCVVVDVSHEDPEVKFNWYVDGVEVHNAKTKPREEQYNSTYRVVSVLTVLHQDWLNGKEYKCKVSNKALPAPIEKTISKAKGQPREPQVYVYPPSREEMTKNQVSLTCLVKGFYPSDIAVEWESNGQPENNYKTTPPVLDEDGSFALVSKLTVDKSRWQQGNVFSCSVMHEALHNHYTQKSLSLSPGK heavy 2: EVQLQQSGPELVKPGASVKMSCKASGYTFTDYYMKWVKQSHGKSLEWIGHINPNNDDTFYTQKFKGRATLTVDKSSSTAYMQLNSLTSEDSAVYYCVRDDYDGGWFAYWGQGTLVTVSSASTKGPSVFPLAPSSKSTSGGTAALGCLVKDYFPEPVTVSWNSGALTSGVHTFPAVLQSSGLYSLSSVVTVPSSSLGTQTYICNVNHKPSNTKVDKKVEPKSCDKTHTCPPCPAPEKKGGPSVFLFPPKPKDTLMISRTPEVTCVVVDVSHEDPEVKFNWYVDGVEVHNAKTKPREEQYNSTYRVVSVLTVLHQDWLNGKEYKCKVSNKALPAPIEKTISKAKGQPREPQVYVLPPSREEMTKNQVSLLCLVKGFYPSDIAVEWESNGQPENRYMTWPPVLDSDGSFFLYSKLTVDKSRWQQGNVFSCSVMHEALHNHYTQKSLSLSPGK light: DIQMTQTTSSLSASLGDRVTISCRASQDINNYLNWYQQKSDGTIKLLIYYTSRSYSGVPSRFSGSGSGTDYSLTISNRRQEDIATYFCQQGKTLPWTFGGGTKLEIKRTVAAPSVFIFPPSDEQLKSGTASVVCLLNNFYPREAKVQWKVDNALQSGNSQESVTEQDSKDSTYSLSSTLTLSKADYEKHKVYACEVTHQGLSSPVTKSFNRGEC
